Measured values: US20240132624A1 (Ablynx, published 2024)

What was measured:
[1] = biological target: T1, human FcRn/b2M (human, UniProt P61769 21-119, biotinylated); assay: SPR pH 6.0
T1 construct: bought recombinant biotinylated protein (ACRO FCM-H82W4 or Immunitrack ITF01); also called hFcRn; hFcRn/hb2M
Description: (§1) All kinetic measurements have been performed on ProteOn XPR36 (BioRad Laboratories, Inc.), MASS-2 (Sierra sensors, Gmbh) or SPR-32 (Bruker Corporation). […] The phytip purified periplasmic extracts were diluted 1:10 in running buffer (CPA+150 mM NaCl+0.005% Tw20 at pH 5.5, pH 6.0 or pH 7.4) and injected over the ligand surfaces (association: 120 s at 45 μL/min; dissociation: 600s-3600 s at 45 μL/min). Experiments were carried out at 25° C.

[2] = biological target: T2, cyno FcRn/b2M (cyno, UniProt Q8SPV9 24-297; Q8SPW0 21-119, biotinylated); assay: SPR pH 6.0;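 further: surface plasmon resonance kinetics at 25 °C, diluted periplasmic extracts injected over immobilized ligand surfaces, 120 s association then 600–3600 s dissociation, running buffer containing 150 mM NaCl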
T2 construct: bought recombinant biotinylated protein (Immunitrack ITF05 or ACRO FCM-C82W5); also called cFcRn; cFcRn/cb2M
Description: as §1

[3] = biological target: T1, human FcRn/b2M; assay: SPR off-rate; pH 7.4 vs pH 6.0;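 further: surface plasmon resonance with diluted periplasmic extracts flowed over ligand surfaces, 120 s association and 600–3600 s dissociation at 25 °C, running buffer containing 150 mM NaCl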
Description: as §1

[4] = biological target: T2, cyno FcRn/b2M; assay: SPR off-rate; pH 7.4 vs pH 6.0;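 further: surface plasmon resonance with diluted periplasmic extracts flowed over ligand surfaces, 120 s association and 600–3600 s dissociation at 25 °C, running buffer containing 150 mM NaCl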
Description: as §1

[5] = biological target: T1, human FcRn/b2M; assay: SPR pH 7.4;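 further: surface plasmon resonance kinetics, periplasmic extracts diluted 1:10 flowed over immobilized target at 25 °C, 120 s association then 600–3600 s dissociation, buffer with 150 mM NaCl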
Description: as §1

[6] = biological target: T2, cyno FcRn/b2M; assay: SPR pH 7.4;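 further: surface plasmon resonance kinetics, periplasmic extracts diluted 1:10 flowed over immobilized target at 25 °C, 120 s association then 600–3600 s dissociation, buffer with 150 mM NaCl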
Description: as §1

[7] = biological target: T1, human FcRn/b2M; assay: SPR pH 6.0; remark: listed apart in the source

T1 sequence (chain, as listed by the source limits assumed, chain 1 of 2): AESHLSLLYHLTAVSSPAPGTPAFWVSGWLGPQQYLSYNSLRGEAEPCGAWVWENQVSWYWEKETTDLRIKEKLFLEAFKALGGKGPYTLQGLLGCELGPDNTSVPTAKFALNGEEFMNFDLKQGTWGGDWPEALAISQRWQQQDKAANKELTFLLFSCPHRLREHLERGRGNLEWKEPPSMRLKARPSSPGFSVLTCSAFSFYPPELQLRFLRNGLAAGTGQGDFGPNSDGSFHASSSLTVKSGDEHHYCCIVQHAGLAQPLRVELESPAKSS
T1 sequence (P61769 21-119 limits assumed, chain 2 of 2): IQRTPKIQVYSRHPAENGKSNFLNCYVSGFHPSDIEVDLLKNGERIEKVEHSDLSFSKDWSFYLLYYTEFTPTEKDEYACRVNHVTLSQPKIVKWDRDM
T2 sequence (Q8SPV9 24-297 limits assumed, chain 1 of 2): as the sequence (chain, as listed by the source limits assumed, chain 1 of 2) above, with N39D, E44Q, G99S, S189G, S190N, L217M, S269T counted along it
T2 sequence (Q8SPW0 21-119 limits assumed, chain 2 of 2): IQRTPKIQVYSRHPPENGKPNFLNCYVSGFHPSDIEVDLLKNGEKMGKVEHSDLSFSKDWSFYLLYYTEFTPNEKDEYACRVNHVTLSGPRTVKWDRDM

B1: T0263018B11 Y32V (VHH, name in Kabat numbering)
VHH: EVQLVESGGGVVQPGGSLRLSCAASGFTFSSVAMYWVRQAPGKGLEWVSAISSGGGSTDYADSVKGRFTISRDNSKNTLYLQMNSLRPEDTALYYCAADTLYTSLTWYSYWGQGTLVTVSS
notes: FLAG3-His6 tagged
What does the source list for B1?
koff [1]: 0.004 s⁻¹; koff [2]: 0.0022 s⁻¹; kd ratio pH 7.4/6.0 [3]: 12; kd ratio pH 7.4/6.0 [4]: 60; koff [5]: 0.048 s⁻¹; koff [6]: 0.13 s⁻¹

B2: T026301054 (VHH, name in Kabat numbering)
VHH: EVQLVESGGGVVQPGGSLRLSCAASTFTFSEYAMYWVRQAPGKGLEWVSAISQGGGSTDYADSVKGRFTISRDNSKNTLYLQMNSLRPEDTALYYCAADTLYTDLTWYSYWGQGTLVTVSS
notes: tagless
Which koff [7] does the source give for B2 here?
Its koff is 0.041 s⁻¹.

B3: T026301096 (VHH, name in Kabat numbering)
VHH: EVQLVESGGGVVQPGGSLRLSCAASGFTFSSYAMYWVRQAPGKGLEWVSAISQGGGSTDYADSVKGRFTISRDNSKNTLYLQMNSLRPEDTALYYCAADTLYTDLTSYSYWGQGTLVTVSS
notes: tagless
B3 was tested. Which koff [7] did it give?
The koff was 0.034 s⁻¹.

B4: T026301083 (VHH, name in Kabat numbering)
VHH: EVQLVESGGGVVQPGGSLRLSCAASGFTFSEYAMYWVRQAPGKGLEWVSAISQGGGSTDYADSVKGRFTISRDNSKNTLYLQMNSLRPEDTALYYCAADTLYTDLTSYSYWGQGTLVTVSS
notes: tagless
With B4 as the binder, how does the koff [7] read?
The koff was 0.067 s⁻¹.

B5: T026301074 (VHH, name in Kabat numbering)
VHH: EVQLVESGGGVVQPGGSLRLSCAASTFTFSEYAMYWVRQAPGKGLEWVSAISSGGGSTDYADSVKGRFTISRDNSKNTLYLQMNSLRPEDTALYYCAADTLYTDLTWYSYWGQGTLVTVSS
notes: tagless
B5 was tested. Which koff [7] did it give?
The koff was 0.013 s⁻¹.

B6: T026301085 (VHH, name in Kabat numbering)
VHH: EVQLVESGGGVVQPGGSLRLSCAASGFTFSSYAMYWVRQAPGKGLEWVSAISQGGGSTDYADSVKGRFTISRDNSKNTLYLQMNSLRPEDTALYYCAADTLYTDLTWYSYWGQGTLVTVSS
notes: tagless
How did the koff [7] turn out when B6 was run?
The koff was 0.0066 s⁻¹.

B7: T026301067 (VHH, name in Kabat numbering)
VHH: EVQLVESGGGVVQPGGSLRLSCAASTFTFSSYDMYWVRQAPGKGLEWVSAISQGGGSTDYADSVKGRFTISRDNSKNTLYLQMNSLRPEDTALYYCAADTLYTSLTKYSYWGQGTLVTVSS
notes: tagless
How did the koff [7] turn out when B7 was run?
Its koff is 0.0061 s⁻¹.

B8: T026301094 (VHH, name in Kabat numbering)
VHH: EVQLVESGGGVVQPGGSLRLSCAASTFTFSEYDMYWVRQAPGKGLEWVSAISQGGGSTDYADSVKGRFTISRDNSKNTLYLQMNSLRPEDTALYYCAADTLYTSLTSYSYWGQGTLVTVSS
notes: tagless
B8 was tested. Which koff [7] did it give?
Its koff is 0.01 s⁻¹.

B9: T026301071 (VHH, name in Kabat numbering)
VHH: EVQLVESGGGVVQPGGSLRLSCAASTFTFSEYAMYWVRQAPGKGLEWVSAISSGGGSTDYADSVKGRFTISRDNSKNTLYLQMNSLRPEDTALYYCAADTLYTDLTSYSYWGQGTLVTVSS
notes: tagless
For B9, which koff [7] is on record?
Its koff is 0.049 s⁻¹.

B10: T026301086 (VHH, name in Kabat numbering)
VHH: EVQLVESGGGVVQPGGSLRLSCAASGFTFSEYDMYWVRQAPGKGLEWVSAISSGGGSTDYADSVKGRFTISRDNSKNTLYLQMNSLRPEDTALYYCAADTLYTDLTWYSYWGQGTLVTVSS
notes: tagless
Which koff [7] does the source give for B10 here?
The koff was 0.013 s⁻¹.

B11: T0263018B11 Y98F (VHH, name in Kabat numbering)
VHH: EVQLVESGGGVVQPGGSLRLSCAASGFTFSSYAMYWVRQAPGKGLEWVSAISSGGGSTDYADSVKGRFTISRDNSKNTLYLQMNSLRPEDTALYYCAADTLFTSLTWYSYWGQGTLVTVSS
notes: FLAG3-His6 tagged
How did the koff [1] turn out when B11 was run?
The koff was 0.00053 s⁻¹.

And the koff [2]?
Its koff is 0.00026 s⁻¹.

What about the “kd ratio pH 7.4/6.0” value [3] of the same binder?
The value was 75.

And the “kd ratio pH 7.4/6.0” value [4]?
Its value is 84.

And the koff [5]?
The koff was 0.04 s⁻¹.

And the koff [6]?
Its koff is 0.022 s⁻¹.

B12: T026301052 (VHH, name in Kabat numbering)
VHH: EVQLVESGGGVVQPGGSLRLSCAASTFTFSEYDMYWVRQAPGKGLEWVSAISSGGGSTDYADSVKGRFTISRDNSKNTLYLQMNSLRPEDTALYYCAADTLYTSLTWYSYWGQGTLVTVSS
notes: tagless
How did the koff [7] turn out when B12 was run?
Its koff is 0.0056 s⁻¹.

B13: T026301090 (VHH, name in Kabat numbering)
VHH: EVQLVESGGGVVQPGGSLRLSCAASTFTFSSYAMYWVRQAPGKGLEWVSAISQGGGSTDYADSVKGRFTISRDNSKNTLYLQMNSLRPEDTALYYCAADTLYTSLTKYSYWGQGTLVTVSS
notes: tagless
For B13, which koff [7] is on record?
Its koff is 0.033 s⁻¹.

B14: T026301097 (VHH, name in Kabat numbering)
VHH: EVQLVESGGGVVQPGGSLRLSCAASTFTFSEYAMYWVRQAPGKGLEWVSAISQGGGSTDYADSVKGRFTISRDNSKNTLYLQMNSLRPEDTALYYCAADTLYTSLTWYSYWGQGTLVTVSS
notes: tagless
B14 was tested. Which koff [7] did it give?
The koff was 0.0067 s⁻¹.

B15: T026301088 (VHH, name in Kabat numbering)
VHH: EVQLVESGGGVVQPGGSLRLSCAASGFTFSSYDMYWVRQAPGKGLEWVSAISSGGGSTDYADSVKGRFTISRDNSKNTLYLQMNSLRPEDTALYYCAADTLYTSLTKYSYWGQGTLVTVSS
notes: tagless
B15 was tested. Which koff [7] did it give?
The koff was 0.0093 s⁻¹.

B16: T0263018B11 Y100dF (VHH, name in Kabat numbering)
VHH: EVQLVESGGGVVQPGGSLRLSCAASGFTFSSYAMYWVRQAPGKGLEWVSAISSGGGSTDYADSVKGRFTISRDNSKNTLYLQMNSLRPEDTALYYCAADTLYTSLTWFSYWGQGTLVTVSS
notes: FLAG3-His6 tagged
With B16 as the binder, how does the koff [1] read?
Its koff is 0.0023 s⁻¹.

What about the koff [2] of the same binder?
The koff was 0.0017 s⁻¹.

What about the “kd ratio pH 7.4/6.0” value [3] of the same binder?
The value was 26.

What about the “kd ratio pH 7.4/6.0” value [4] of the same binder?
The value was 34.

What about the koff [5] of the same binder?
The koff was 0.06 s⁻¹.

What about the koff [6] of the same binder?
The koff was 0.057 s⁻¹.

B17: T026301060 (VHH, name in Kabat numbering)
VHH: EVQLVESGGGVVQPGGSLRLSCAASGFTFSEYAMYWVRQAPGKGLEWVSAISSGGGSTDYADSVKGRFTISRDNSKNTLYLQMNSLRPEDTALYYCAADTLYTDLTSYSYWGQGTLVTVSS
notes: tagless
How did the koff [7] turn out when B17 was run?
The koff was 0.034 s⁻¹.

B18: T026301089 (VHH, name in Kabat numbering)
VHH: EVQLVESGGGVVQPGGSLRLSCAASGFTFSSYAMYWVRQAPGKGLEWVSAISSGGGSTDYADSVKGRFTISRDNSKNTLYLQMNSLRPEDTALYYCAADTLYTDLTKYSYWGQGTLVTVSS
notes: tagless
B18 was tested. Which koff [7] did it give?
The koff was 0.028 s⁻¹.

B19: T026301050 (VHH, name in Kabat numbering)
VHH: EVQLVESGGGVVQPGGSLRLSCAASTFTFSSYAMYWVRQAPGKGLEWVSAISQGGGSTDYADSVKGRFTISRDNSKNTLYLQMNSLRPEDTALYYCAADTLYTDLTWYSYWGQGTLVTVSS
notes: tagless
How did the koff [7] turn out when B19 was run?
Its koff is 0.029 s⁻¹.

B20: T026301051 (VHH, name in Kabat numbering)
VHH: EVQLVESGGGVVQPGGSLRLSCAASGFTFSSYDMYWVRQAPGKGLEWVSAISSGGGSTDYADSVKGRFTISRDNSKNTLYLQMNSLRPEDTALYYCAADTLYTDLTWYSYWGQGTLVTVSS
notes: tagless
With B20 as the binder, how does the koff [7] read?
The koff was 0.012 s⁻¹.

B21: T026301072 (VHH, name in Kabat numbering)
VHH: EVQLVESGGGVVQPGGSLRLSCAASGFTFSSYDMYWVRQAPGKGLEWVSAISQGGGSTDYADSVKGRFTISRDNSKNTLYLQMNSLRPEDTALYYCAADTLYTDLTSYSYWGQGTLVTVSS
notes: tagless
For B21, which koff [7] is on record?
The koff was 0.015 s⁻¹.

B22: T026301107 (VHH, name in Kabat numbering)
VHH: EVQLVESGGGVVQPGGSLRLSCAASTFTFSSYDMYWVRQAPGKGLEWVSAISQGGGSTDYADSVKGRFTISRDNSKNTLYLQMNSLRPEDTALYYCAADTLYTSLTSYSYWGQGTLVTVSS
notes: tagless
Which koff [7] does the source give for B22 here?
The koff was 0.0045 s⁻¹.

B23: T026301084 (VHH, name in Kabat numbering)
VHH: EVQLVESGGGVVQPGGSLRLSCAASGFTFSSYAMYWVRQAPGKGLEWVSAISSGGGSTDYADSVKGRFTISRDNSKNTLYLQMNSLRPEDTALYYCAADTLYTDLTSYSYWGQGTLVTVSS
notes: tagless
Which koff [7] does the source give for B23 here?
The koff was 0.021 s⁻¹.

B24: T026301082 (VHH, name in Kabat numbering)
VHH: EVQLVESGGGVVQPGGSLRLSCAASTFTFSSYAMYWVRQAPGKGLEWVSAISSGGGSTDYADSVKGRFTISRDNSKNTLYLQMNSLRPEDTALYYCAADTLYTDLTSYSYWGQGTLVTVSS
notes: tagless
Which koff [7] does the source give for B24 here?
Its koff is 0.054 s⁻¹.

B25: T026301081 (VHH, name in Kabat numbering)
VHH: EVQLVESGGGVVQPGGSLRLSCAASTFTFSSYAMYWVRQAPGKGLEWVSAISSGGGSTDYADSVKGRFTISRDNSKNTLYLQMNSLRPEDTALYYCAADTLYTSLTSYSYWGQGTLVTVSS
notes: tagless
How did the koff [7] turn out when B25 was run?
Its koff is 0.0088 s⁻¹.

B26: T026301059 (VHH, name in Kabat numbering)
VHH: EVQLVESGGGVVQPGGSLRLSCAASGFTFSEYDMYWVRQAPGKGLEWVSAISQGGGSTDYADSVKGRFTISRDNSKNTLYLQMNSLRPEDTALYYCAADTLYTDLTSYSYWGQGTLVTVSS
notes: tagless
Which koff [7] does the source give for B26 here?
Its koff is 0.039 s⁻¹.

B27: T026301078 (VHH, name in Kabat numbering)
VHH: EVQLVESGGGVVQPGGSLRLSCAASGFTFSEYDMYWVRQAPGKGLEWVSAISQGGGSTDYADSVKGRFTISRDNSKNTLYLQMNSLRPEDTALYYCAADTLYTDLTWYSYWGQGTLVTVSS
notes: tagless
How did the koff [7] turn out when B27 was run?
The koff was 0.0095 s⁻¹.

B28: T0263018B11 Y35F (VHH, name in Kabat numbering)
VHH: EVQLVESGGGVVQPGGSLRLSCAASGFTFSSYAMFWVRQAPGKGLEWVSAISSGGGSTDYADSVKGRFTISRDNSKNTLYLQMNSLRPEDTALYYCAADTLYTSLTWYSYWGQGTLVTVSS
notes: FLAG3-His6 tagged
What does the source list for B28?
koff [1]: 0.0043 s⁻¹; koff [2]: 0.0035 s⁻¹; kd ratio pH 7.4/6.0 [3]: 33; kd ratio pH 7.4/6.0 [4]: 46; koff [5]: 0.14 s⁻¹; koff [6]: 0.16 s⁻¹

B29: T0263018B11 Y102T (VHH, name in Kabat numbering)
VHH: EVQLVESGGGVVQPGGSLRLSCAASGFTFSSYAMYWVRQAPGKGLEWVSAISSGGGSTDYADSVKGRFTISRDNSKNTLYLQMNSLRPEDTALYYCAADTLYTSLTWYSTWGQGTLVTVSS
notes: FLAG3-His6 tagged
Which koff [1] does the source give for B29 here?
Its koff is 0.0017 s⁻¹.

What about the koff [2] of the same binder?
Its koff is 0.0012 s⁻¹.

And the “kd ratio pH 7.4/6.0” value [3]?
Its value is 38.

What about the “kd ratio pH 7.4/6.0” value [4] of the same binder?
Its value is 50.

What about the koff [5] of the same binder?
Its koff is 0.065 s⁻¹.

What about the koff [6] of the same binder?
The koff was 0.06 s⁻¹.
